Experimental data published in patent US20150218594A1, “CELL-FREE AND MINIMIZED METABOLIC REACTION CASCADES FOR THE PRODUCTION OF CHEMICALS” (CLARIANT PRODUKTE (DEUTSCHLAND) GMBH, priority 2012, published 2015).
Like-named read-outs stand apart in the source and are kept apart here. Marks after values point to notes of the source that are not given here.

Key:
[1] = KDGA activity in cleavage direction (HPLC); type: biochemical; conditions: natural substrate
Experimental: (J. Mol. Catal. B-Enzym. 2009, 61, 30-35).
KDGA activity: KDGA activity was followed in cleavage direction at 50° C. Reaction mixture contained 50 mM HEPES (pH 7), 0.1 mM thiamine pyrophosphate, 2.5 mM MgCl2, 20 U PDC and 10 mM KDG. KDG cleavage was followed by HPLC as described below.
Sample volume was 10 μl in each case.

[2] = Ethanol tolerance of enzymes (E50); type: biochemical; conditions: 60° C.
[3] = Isobutanol tolerance of enzymes (I50); type: biochemical
[4] = cited from earlier work
[5] = Enzyme half-life at 50° C.

B1: KDGA: 2-Keto-3-deoxygluconate aldolase KDGA (EC 4.1.2.14), Sulfolobus acidocaldaricus, Seq ID 06 (protein, listed as Sulfolobus acidocaldarius)
chain: MEIISPIITPFDKQGKVNVDALKTHAKNLLEKGIDAIFVNGTTGLGPALSKDEKRQNLNALYDVTHKLIFQVGSLNLNDVMELVKFSNEMDILGVSSHSPYYFPRLPEKFLAKYYEEIARISSHSLYIYNYPAATGYDIPPSILKSLPVKGIKDTNQDLAHSLEYKLNLPGVKVYNGSNTLIYYSLLSLDGVVASFTNFIPEVIVKQRDLIKQGKLDDALRLQELINRLADILRKYGSISAIYVLVNEFQGYDVGYPRPPIFPLTDEEALSLKREIEPLKRKIQELVH
**Q.** With B1 as the molecule, how does the “Activity, 50° C.” value [1] read?
**A.** 4 U/mg

**Q.** And the “E50: Ethanol concentration which causes loss of 50% activity” value [2]?
**A.** 15 (60° C.) % v/v

**Q.** And the “I50: Isobutanol concentration which causes loss of 50% activity” value ([3]; 60° C., above solubility)?
**A.** >12 (60° C.)^b % v/v

**Q.** And the “activity in a two-phase isobutanol/water system” value ([3]; two-phase system forms at product titers above 12% (v/v))?
**A.** remains completely active

**Q.** What about the T-Optimum ([4]; Table 1, value with literature reference) of the same molecule?
**A.** 99^[1] 50 °C

**Q.** And the T-Optimum ([4]; Table 2, value with literature reference)?
**A.** 99^[1] ° C.

**Q.** What about the “Half-life, 50° C.” value [5] of the same molecule?
**A.** >24 h
